Measured values as given in patent US20020164721A1, “Design of a polyepitopic construct for the induction of HLA-A2.1 restricted HIV 1 specific CTL responses using HHD mice” (priority 1999, published 2002).

Legend:
[1] = target: T1, HLA-A2.1 molecules on T2 (TAP-, HLA-A2.1+) cells (human); test: T2 cells, decay of surface peptide-HLA-A2.1 complexes, FACS
[2] = target: T1, HLA-A2.1 molecules on T2 (TAP-, …); test: T2 cells, HLA-A2.1 stabilisation, BB7.2 immunofluorescence FACS
[3] = target: T1, HLA-A2.1 molecules on T2 (TAP-, …); test: T2 cells, HLA-A2.1 stabilisation, indirect immunofluorescence FACS

| Binder | DC50 (half-life of peptide-HLA-A2.1 complexes) [1] [h] | relative affinity (RA) (ratio to reference peptide HIV 1 rt.476) [2] | relative affinity (RA) (ratio to reference peptide I9V) [3] |
| --- | --- | --- | --- |
| IISAVVGIL (modifications not checked) [Her2/neu.654] | 4 | – | – |
| RMPEAAPPV (modifications not checked) [p53.65] | – | 0.91 | – |
| LLDGTATLRL (modifications not checked) [gp100.457] | – | 1.65 | – |
| KLTPLCVSL (modifications not checked) [K9L] | > 6 | – | 1.35 |
| VLYRYGSFSV (modifications not checked) [gp100.476] | – | 10 | – |
| ILTVILGVL (modifications not checked) [Melan-A/MART-1.32] | – | 21.1 | – |
| VLPDVFIRC (modifications not checked) [NA17-A.nt38] | > 8 | 1.52 | – |
| FLWGPRALV (modifications not checked) [MAGE-3.271] | 6 | – | – |
| LLDTGADDTV (modifications not checked) [L10V] | < 2 | – | 10 |
| MLLAVLYCL (modifications not checked) [Tyrosinase.1] | – | > 60 | – |
| YMNGTMSQV (modifications not checked) [Tyrosinase.368-N] | > 8 | 2.2 | – |
| YMDGTMSQV (modifications not checked) [Tyrosinase.368-D] | > 6 | 2.27 | – |
